Experimental data taken from patent publication US20170173106A1, “Polypeptide Fragments of 168A-T2 and Compositions Comprising Them for Use in Treating Cancer” (GENE SIGNAL INTERNATIONAL SA, priority 2014, published 2017).

Assays:
CD9P-1-CD151 complex = target: T1, CD9P-1-CD151 complex (Homo sapiens, UniProt P48509+Q9P2B2); test: Immunoprecipitation in HUVECs: CD9P-1 with CD151; format: cell-based; conditions: 33 μM; 2 hrs
T1 construct: endogenous in cells; host or cells: HUVEC
T1 sequence (Q9P2B2 26-879): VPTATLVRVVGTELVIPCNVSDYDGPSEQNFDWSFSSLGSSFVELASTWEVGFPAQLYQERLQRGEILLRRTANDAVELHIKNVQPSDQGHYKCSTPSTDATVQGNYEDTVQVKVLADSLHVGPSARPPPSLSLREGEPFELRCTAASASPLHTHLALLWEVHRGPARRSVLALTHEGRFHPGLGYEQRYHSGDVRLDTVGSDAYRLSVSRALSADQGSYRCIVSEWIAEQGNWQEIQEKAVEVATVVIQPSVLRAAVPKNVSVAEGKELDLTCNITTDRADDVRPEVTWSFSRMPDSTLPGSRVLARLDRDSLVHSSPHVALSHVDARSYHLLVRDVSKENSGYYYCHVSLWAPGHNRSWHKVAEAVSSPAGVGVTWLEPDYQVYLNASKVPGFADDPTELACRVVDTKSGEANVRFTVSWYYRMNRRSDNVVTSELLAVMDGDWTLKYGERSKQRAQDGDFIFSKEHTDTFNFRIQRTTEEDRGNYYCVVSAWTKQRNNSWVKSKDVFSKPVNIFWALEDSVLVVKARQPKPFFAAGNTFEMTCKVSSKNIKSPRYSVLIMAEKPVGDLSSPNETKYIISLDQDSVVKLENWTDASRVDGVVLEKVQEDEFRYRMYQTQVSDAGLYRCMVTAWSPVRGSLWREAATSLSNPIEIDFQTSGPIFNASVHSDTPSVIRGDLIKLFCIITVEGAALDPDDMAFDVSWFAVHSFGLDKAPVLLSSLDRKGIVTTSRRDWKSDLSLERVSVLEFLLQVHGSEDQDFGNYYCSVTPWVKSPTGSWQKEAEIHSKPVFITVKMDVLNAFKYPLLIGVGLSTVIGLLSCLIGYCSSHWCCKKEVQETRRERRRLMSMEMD
T1 sequence (P48509 1-253): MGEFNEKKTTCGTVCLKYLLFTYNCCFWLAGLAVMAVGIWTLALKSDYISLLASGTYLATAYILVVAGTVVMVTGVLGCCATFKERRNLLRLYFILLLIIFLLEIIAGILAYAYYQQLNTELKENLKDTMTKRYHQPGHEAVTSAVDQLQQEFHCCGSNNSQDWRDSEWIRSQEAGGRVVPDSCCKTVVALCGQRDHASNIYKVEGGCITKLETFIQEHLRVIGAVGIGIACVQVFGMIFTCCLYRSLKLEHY
Experimental: (§1) FIG. 13 is a photograph representing the dissociation of CD9-CD9P-1, CD9P-1-CD151 and CD9-CD151 complexes by P3 in HUVECs. HUVECs incubated for 2 h with 33 μM P3, PCT or solvent in EGM2-MV medium were lysed in brij 97 buffer, then CD81, CD9 or CD151 were immunoprecipitated with the corresponding antibody. Line A: Western blot results obtained with anti-CD9P-1 antibody from immunoprecipitated CD81, CD9 and CD151. Line B: Western blot results obtained with anti-CD9 antibody from immunoprecipitated CD81, CD9 and CD151. Line C: Western blot results obtained with anti-CD151 antibody from immunoprecipitated CD81, CD9 and CD151. PCT: control peptide. IP: immunoprecipitation.
(§2) To study more precisely the effect of P3 on the associations of tetraspanins CD9, CD81, and CD151 between them and with CD9P-1, immunoprecipitation (IP) experiments were performed. In the control experiment (with the solvent), CD9P-1 co-precipitated with CD9 and CD81. A weak co-precipitation was observed between […] and CD151. The associations between tetraspanins and CD9P-1 are not modified under PCT condition. However, the interactions between CD9P-1 and CD9 and between CD9P-1 and CD151 are decreased while the HUVECs are incubated for 2 hrs with 33 μM of P3. The association between CD9P-1 and CD81 is not modified by P3 (FIG. 13A).

CD9-CD9P-1 complex = target: T2, CD9-CD9P-1 complex (Homo sapiens, UniProt P21926+Q9P2B2); test: Immunoprecipitation in HUVECs: CD9P-1 with CD9; format: cell-based; conditions: 33 μM; 2 hrs
T2 construct: endogenous in cells; host or cells: HUVEC
T2 sequence (Q9P2B2 26-879): T1 sequence (Q9P2B2 26-879)
T2 sequence (P21926 2-228 limits assumed): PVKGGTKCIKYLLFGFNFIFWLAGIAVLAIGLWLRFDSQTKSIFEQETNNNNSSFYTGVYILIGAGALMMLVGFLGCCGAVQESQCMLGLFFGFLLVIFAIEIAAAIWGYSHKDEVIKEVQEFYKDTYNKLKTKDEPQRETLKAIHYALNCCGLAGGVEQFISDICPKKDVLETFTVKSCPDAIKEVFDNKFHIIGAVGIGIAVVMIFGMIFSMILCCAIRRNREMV
Experimental: as §1, §2

[1] = target: T3, CD9P-1 and CD81 association (Homo sapiens, UniProt P60033+Q9P2B2); test: Immunoprecipitation in HUVECs: CD9P-1 with CD81; format: cell-based; conditions: 33 μM; 2 hrs
T3 construct: endogenous in cells; host or cells: HUVEC
T3 sequence (Q9P2B2 26-879): T1 sequence (Q9P2B2 26-879)
T3 sequence (P60033 1-236): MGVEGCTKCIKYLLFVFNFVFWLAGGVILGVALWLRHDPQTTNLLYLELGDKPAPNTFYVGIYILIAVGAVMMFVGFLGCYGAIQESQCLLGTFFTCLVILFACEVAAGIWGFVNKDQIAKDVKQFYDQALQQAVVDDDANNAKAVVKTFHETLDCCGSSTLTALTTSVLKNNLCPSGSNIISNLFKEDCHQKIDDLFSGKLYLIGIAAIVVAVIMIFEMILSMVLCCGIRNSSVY
Experimental: as §1, §2

HUVECs [2] = test: Capillaries formation by HUVECs on Matrigel; format: cell-based, human; conditions: 6.5 μM, 13 μM and 33 μM, 18 h
Experimental: Evaluating the formation of capillaries on Matrigel® was performed by angiogenesis test in vitro described in Grant et al (1989 Cell 58, 933-943). Matrigel® was dropped down the wells of the 96 well plates and maintained for 30 min at 37° C. for the Matrigel® solidification. HUVECs cells were then seeded and 50 μL, of peptide added.
Plates were then incubated for 18 hrs at 37° C. cells were then washed with calcein solution (50 μL/well at 8 μM) and incubated for 20 min. HUVECs alive metabolize calcein in a green fluorescent component.
Peptides were added to the culture medium (EGM2-MV) at concentrations 6.5 μM, 13 μM and 33 μM after inoculation of cells. Plates were incubated at 37° C. for 18 h. Fluorescence labeling was achieved by addition of calcein. Pictures were shot with a fluorescence microscope equipped with a camera (zoom ×40).

HUVECs [3] = test: Migration test following the wound test; format: cell-based, human; conditions: 66 μM (FIG. 3); 20 hrs
Experimental: The migration of the cells was evaluated according to the wound test (Sato and Rifkin 1988 J Cell Biol 107, 1199-1205). HUVECs were cultivated to confluence in an EGM2-MV media. The wound width was measured using the software “Analysis” (Soft Imaging System Gmbh Digital, Olympus). Peptides to be tested were then added to the media.
A wound has been performed with a chisel tip on the cell layer. The HUVECs migration following the addition of peptides was evaluated by the wound assay and the progress of the migration front of the HUVECs was analyzed after 20 hrs of culture. […] Pictures were shot with a microscope equipped with a camera (zoom ×40).

interaction between CD9P-1 and CD151 (CD9P-1-CD151 complex): not modified
interaction between CD9P-1 and CD9 (CD9-CD9P-1 complex): not modified
association between CD9P-1 and CD81 [1]: not modified
Sequence: NQKGCYDLVT (control peptide) [PCT]
capillary tubes formation (capillaries length and junctions number) (HUVECs [2]): no effect
wound closure / HUVECs migration (HUVECs [3]): completely closed
